Publication PMC3950521 (mBio, 2014)

B1: full-length wild-type LytA (N-acetylmuramoyl-L-alanine amidase, major autolysin of Streptococcus pneumoniae) (enzyme, Streptococcus pneumoniae TIGR4, UniProt P06653 1-318, looked up)
chain: MEINVSKLRTDLPQVGVQPYRQVHAHSTGNPHSTVQNEADYHWRKDPELGFFSHIVGNGCIMQVGPVDNGAWDVGGGWNAETYAAVELIESHSTKEEFMTDYRLYIELLRNLADEAGLPKTLDTGSLAGIKTHEYCTNNQPNNHSDHVDPYPYLAKWGISREQFKHDIENGLTIETGWQKNDTGYWYVHSDGSYPKDKFEKINGTWYYFDSSGYMLADRWRKHTDGNWYWFDNSGEMATGWKKIADKWYYFNEEGAMKTGWVKYKDTWYYLDAKEGAMVSNAFIQSADGTGWYYLKPDGTLADKPEFTVEPDGLITVK
B2: recombinant full-length His-tagged LytA, wt-LytA(N-His6) (enzyme, Streptococcus pneumoniae TIGR4, UniProt P06653 1-318, looked up)
chain: B1 chain

What was measured:
Assay in all cases: SAXS
[1] = target: choline-binding domain of wt-LytA (LytA^CBD) (Streptococcus pneumoniae TIGR4)
[2] = target: full-length prophage LytA (prophage of Streptococcus pneumoniae Hungary 19A-6)
SAXS = target: the molecule itself

Molecule	stoichiometry N (SAXS)	further results
choline-binding domain of wt-LytA (LytA^CBD) (domain or fragment)	–	stoichiometry N [1]: 2
full-length prophage LytA (enzyme)	–	stoichiometry N [2]: 2
B1	2	–
B2	2	–
